In patent US9587002B2, “Sequence of nucleotides and peptides GSE 24.2 of dyskerin, which can induce telomerase activity, method for obtaining same, therapeutic compositions and applications thereof” (CONSEJO SUPERIOR DE INVESTIGACIONES CIENTIFICAS, priority 2005, dated 2017):

Columns and labels:
p38 = assay: Activation of p38 by cisplatin in 293T cell lines (Western blot); format: cell-based, human; details: 293T cells stably expressing GSE 24.2 vs pLNCX; cisplatin 6 hours
Procedure: FIG. 2.—Cell viability and activation of the JNK and p38 death pathways in 293T cell lines: pLNCX and 24.2, treated with cisplatin. A) Cell viability. After seeding the 293T cells: expressing the empty vector (pLNCX) and GSE 24.2 (24.2) in 24-well plates, they were incubated with concentrations between 0-100 μg/ml of cisplatin. The cell viability was measured by means of the crystal violet technique after 72 hours of exposure to the drug. The data represent the mean of two experiments performed in quadruplicate. B) Activation kinetics. Subsequently, the activation of JNK and p38 was studied using antibodies that specifically recognise the active forms. As a load control, the levels of JNK-1 were detected.
The pLNCX24-2 plasmid containing GSE of the same name was transfected in a stable manner in the 293T cells and, as a control, the pLNCX empty vector was transfected. After verifying, by means of PCR, that the 24.2 cell line contained this insert (data not shown), the response to cisplatin was studied, creating a viability curve with this drug. […] JNK and p38 are MAPKs that are activated in response to genotoxic agents (Sanchez-Perez et al., 1998).
Western Blot and antibodies. 20 μg of protein were separated in SDS-polyacrylamide gels; subsequently, they were transferred to Immobilon-P membranes (Millipore) by humid transfer. […]

hTERT = assay: RT-PCR of hTERT in VA13 cells; format: cell-based; details: transient transfection
Procedure: FIG. 10.—Telomerase activity and expression levels of hTERT and hTR in the cells of patients with dyskeratosis congenita and in VA13 cells transiently transfected with the 24.2 plasmid or the pLNCX empty vector. A) Telomerase activity measured by means of the TRAP assay in the cells of patients with dyskeratosis congenita (DC-1, DC-2 and DC-3) and in the carrier parent (DC-C) following electroporation of 45 μg of the pLNCX empty plasmid (−) or the pLNCX 24.2 vector (+) by 15 million cells. B) RT-PCR of the RNA from cells of one of the patients with dyskeratosis congenita, DC3 transfected with the empty vector and DC3 transfected with the 24.2 plasmid, using oligos specific for hTERT and hTR. As a starting RNA control, oligos for the amplification of GAPDH were used. C) Telomerase activity in VA13 cells. The cells were transiently transfected with 16 μg of the control pLNCX empty vector, expressing DKC or the GSE 24.2 peptide per million cells. 24 hours later, the telomerase activity was analysed as described above, using dilutions of the protein extracts from each transfection. D) The expression levels of hTERT and hTR in VA13 cells transfected with 16 μg of the different construct per million cells. RNA levels were detected as described above. GAPDH was used as a control. […] After 24 h of transfection, the luciferase activity was analyzed as described above. […]

B1: GSE 24.2: 165-pb cDNA fragment (nucleotides 268 to 433) of human dyskerin, SEQ ID NO1, encoding peptide SEQ ID NO2, expressed from pLNCX plasmid (nucleic acid, listed as Homo sapiens)
DNA: GGTTTCATTAATCTTGACAAGCCCTCTAACCCCTCTTCCCATGAGGTGGTAGCCTGGATTCGACGGATACTTCGGGTGGAGAAGACAGGGCACAGTGGTACTCTGGATCCCAAGGTGACTGGTTGTTTAATCGTGTGCATAGAACGAGCCACTCGCTTGGTGAAG
modifications: expressed from pLNCX plasmid; CDS (1)..(165) Sequence GSE 24.2
dose of cisplatin required to activate p38 (p38): a greater dose of cisplatin is required to activate both kinases
expression of hTERT RNA in VA13 cells (hTERT): capable of recovering
